Reference: patent publication US9371519B2, “Complex type sugar chain hydrolase” (National Institute of Advanced Industrial Science and …, priority 2011, dated 2016)

Test: Enzyme activity measurement with NGA2-Asn-Fmoc by HPLC (specific activity, Km, Vmax)
Assay type: biochemical
Settings: for Specific activity: 1 mM NGA2-Asn-Fmoc as substrate
Procedure: The enzyme activity was measured as follows. A reaction solution (total volume: 10 μl) containing 100 mM of a sodium acetate buffer (pH 5.3) at the final concentration, 0.5 M NaCl, 10 μM of a Fmoc-labeled biantennary complex type sugar chain (NGA2-Asn-Fmoc), […], and heated at 95° C. for 5 minutes, thereby stopping the enzyme reaction. The reaction solution was subjected to HPLC, and the enzymatic activity was calculated from the peak area ratio between the NGA2-Asn-Fmoc as the substrate and its hydrolysate. The column was Asahipak NH2P-50 4E (4.6.250 mm, Shodex), and the solvents were acetonitrile (solvent A) and 200 mM of TEAA (pH 7.0, GLEN RESEARCH: solvent B). Isocratic elution was carried out at a flow rate of 1.0 ml/min, and the solvent B: 43%, and detection was carried out using a fluorescence detector (excitation wavelength 265 nm, and fluorescence wavelength 315 nm). The activity hydrolyzing […] of NGA2-Asn-Fmoc in 1 minute under the above-described reaction conditions was defined as 1 Unit of the enzymatic activity of Endo-Om.
The properties of Endo-Om were studied using a purified enzyme solution. According to the method described in Example 4, the Endo-Om crude enzyme solution prepared from 100 ml culture was substituted with an equilibration buffer (20 mM sodium phosphate buffer (pH 7.4), 0.5 M NaCl, 0.5 mM PMSF, 50 mM imidazole) by dialysis. The Endo-Om crude enzyme solution after dialysis was subjected to a HisTrap HP column (GE Healthcare), washed with the equilibration buffer, and eluted stepwise by an equilibration buffer containing 50 mM, 100 mM, and 200 mM of imidazole, thereby eluting the protein. The fraction containing Endo-Om eluted from the column was subjected to ultrafiltration concentration using Amicon Ultra (50,000 NMWL, Millipore), further dialyzed with 20 mM of sodium phosphate buffer (pH 7.4) and 0.5 M of NaCl, and glycerol was added to make the final concentration 10%, thereby making an Endo-Om purified enzyme solution. According to the method described in Example 4, the activity of the Endo-Om purified enzyme solution when the substrate concentration was 1 mM was measured, and the specific activity was calculated. In addition, activity measurement was carried out using NGA2-Asn-Fmoc at different concentrations as the substrates, and Km and Vmax were calculated. For comparison, the specific activity, Km, and Vmax of the commercially available Endo-M were calculated by the same method. The optimal pH of Endo-M is 6.0 (Non Patent Literature 6), so that the pH of the sodium acetate buffer was made 6.0 when measuring the activity of Endo-M.
The enzyme activity was measured as follows. A reaction solution (total volume: 10 μl) containing 100 mM of a sodium acetate buffer (pH 5.3) at the final concentration, 0.5 M NaCl, 10 μM of a Fmoc-labeled biantennary complex type sugar chain (NGA2-Asn-Fmoc), and Endo-Cp was incubated at 30° C. for 3 hours, and heated at 95° C. for 5 minutes, thereby stopping the enzyme reaction. The reaction solution was subjected to HPLC, and the enzymatic activity was calculated from the peak area ratio between the NGA2-Asn-Fmoc as the substrate and its hydrolysate. […] Isocratic elution was carried out at a flow rate of 1.0 ml/min, and the solvent B: 43%, and detection was carried out using a fluorescence detector (excitation wavelength 265 nm, and fluorescence wavelength 315 nm). […]
The enzyme activity was measured as follows. […]

Molecule	Specific activity (purified Endo-Om) [µmol/min/mg]	Specific activity (purified Endo-Om (pH 5.3), commercially available Endo-M (pH 6.0)) [µmol/min/mg]	Km relative to the Km of Endo-M (NGA2-Asn-Fmoc) [times]	Vmax relative to the Vmax of Endo-M (NGA2-Asn-Fmoc) [times]	Specific activity of partially purified enzyme solution (10 μM NGA2-Asn-Fmoc as substrate, pH 5.3, 30° C.) [μUnit/mg]
Endo-Om: endo-β-N-acetylglucosaminidase from methylotrophic yeast Ogataea minuta IFO10746, amino acid sequence SEQ ID NO. 1, 772 amino acids (protein, listed as Ogataea minuta) MAQSQLLGGAVRPVFFDKLEELRRWHTQSANLSRESELDSLNVATEPFSSYERAQTGSGSRSSEPVPGDKEDPPIKLMVCHDFKGGYQDYEDAQPLGYFPHPTGSRYFLQYPQLIDQFVYFSHHRVTVPPVNWINFCHRNGIKCFGTVIFEGNASKDFEELDRLVSRDEKGDFVFVDALIKLAAHYGFDGYLLNIETTFSNTKIAADLEPFAEQLKSGLHCLDSKNELIWYDSYVFPANKVSYTNGVTESNYNFFSLSDAFFSNYWWNIKNLQENIKNVGVLGVQKKIYVGYDVWGRGTLVGKGGFDSSLACKMIAKFKSNVALFAPAWTYESLGPKDFNQNDARFWIGLFENESSISSTVPPHSSAVYKINESSFIFYTNFSSGEGNRFFSKGSEVYRKNWVNGSLQFDLPIDLHRKDKNGLQWALDKSDAFHGGACLEIKYSEIKDENGYQIFNNQMVSDFTLFNFTKECHFPTVNVKVTYKLNHKTKSTFKIKIKYIIERRFRSVQTVRTGYLTIPLLSTSGKWFTVEESFQINLQTSHEYIVLESAHVTYDEDRSADSFFRSYIVEDSAITSVIDNEEYEKLINSEIYNDDEDEDWILVPSDVSISSSESQSNDSKTQYLGRKLFGNKSTPKTRTLEGTAPLLRIGEFAIISANNYPSSNFLAVTSVKSIESSRLEGDSLVLLNWQVGEGHQKGVCYYIIYVNGAVVGLSVAPKFIYQDTELASENSASARSNYKKSGLGSSSDRKSKVRVDSVDKLGNVFTGSEVWV	0.8	0.80	31	55	–
Endo-Cp: endo-β-N-acetylglucosaminidase from Candida parapolymorpha DL-1 ATCC26012, amino acid sequence SEQ ID NO. 5, 745 amino acids (protein, listed as Candida parapolymorpha) MPRNTAKHSSLPQTNLPLSSLESSFFDSLDELANWERRIHEKSFELDELNKPTEKLAHYTRARQQSTSEDVKLLVCHDLKGGYQVNEDEDPLGYFPHPDGQHYFLQYPQLVDKFVYFSHHRVSIPPVSWINVCHRNAIKCLGTVIFEGNTYRDFEEADKLLTKQDGEYVFVRCLVALVEYFQFDGYLFNIETRFSNTRIASLLEPFLEQLRAELHVRNPSTELIWYDSYIYPENRVLYKNGVTEANYNFFSCCDSFFTNYWWNVKHLQDNIKNVGVLGSRLKVYAGYDVWGRGTMIGKGGYDSALACQMIKKYRSNVALFAPAWTYEYLARKDFTQNDTRFWIGLFDGESSMATTFKPYSSPLYKINDSNFVFYTNFGSGEGCAFYECGEKVYRDNWVNGSLQMEIPYAIHTRNKNGIQWTLSKEDSFHGGSCVEIKYNEVVDDKGYQVFNNQTINSFSLFSFVQDCSFPTVNVKLTYKLNHKTKSFFKLKIGYYIERRYRTVQKVRSGCLVVPLLSTNDQWFTIEEPFHVSLQNSHEFIVLDSATIFYEETEDPFMRAHVVEDQSTSSVIDNEEYEKLMNSEIYFDDEDEDWILVPSDISMESTDNGGRENHTWKVISNQIRKKHPKSHPSTSPVLKLGELAIINANDYPSDSFFKLMPVNSIDVRRWEGKILLIWKTNQDSVLYHLIFVDDVFQGISLVSKFVFEDQAVDEKSFKTKSGGSTKVRIDTVNRLGILVKGTDM	–	–	–	–	120
